Ends that are not written are not given here.
T1: PACAP38 peptide fragment 34-38 (human, ends and bridges not checked)
T1 construct: also called peptide No. 17; RVKNK
T1 peptide: RVKNK

T2: 30-37
T2 construct: also called PACAP38 peptide fragment 30-37; peptide No. 19
T2 peptide: RYKQRVKN

T3: PACAP38 peptide fragment 6-20 (human)
T3 construct: also called peptide No. 13
T3 peptide: FTDSYSRYRKQMAVK

T4: amino terminal PACAP38 peptide (amino acids 1-13) (human)
T4 construct: also called N-terminal Peptide; N-terminal PACAP peptide
T4 peptide: HSDGIFTDSYSRY

T5: PACAP38 peptide fragment 27-38 (human, ends and bridges not checked)
T5 construct: also called peptide No. 6
T5 peptide: LGKRYKQRVKNK

T6: vasoactive intestinal peptide (VIP) (human)
T6 construct: also called human VIP
T6 peptide: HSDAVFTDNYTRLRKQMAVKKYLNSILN

T7: carboxy terminal PACAP38 peptide (amino acids 28-38) (human, ends and bridges not checked)
T7 construct: also called C-terminal Peptide; C-terminal PACAP peptide
T7 peptide: GKRYKQRVKNK

T8: 31-38 (ends and bridges not checked)
T8 construct: also called PACAP38 peptide fragment 31-38; peptide No. 5
T8 peptide: YKQRVKNK

T9: PACAP38 peptide fragment 26-33 (human)
T9 construct: also called peptide No. 2
T9 peptide: VLGKRYKQ

T10: full-length human PACAP38 (human, not fully specified)
T10 peptide: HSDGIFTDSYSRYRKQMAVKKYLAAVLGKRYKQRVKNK

T11: PACAP38 peptide fragment 11-27 (human)
T11 construct: also called peptide No. 8
T11 peptide: SRYRKQMAVKKYLAAVL

T12: PACAP38 peptide fragment 14-38 (human, not fully specified)
T12 construct: also called peptide No. 7
T12 peptide: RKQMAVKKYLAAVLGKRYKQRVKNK

T13: human PACAP27 (human, not fully specified)
T13 peptide: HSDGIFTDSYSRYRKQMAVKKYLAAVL

T14: PACAP38 peptide fragment 6-38 (human, not fully specified)
T14 construct: also called peptide No. 11
T14 peptide: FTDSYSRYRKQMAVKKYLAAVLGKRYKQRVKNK

T15: PACAP38 peptide fragment 6-37 (human)
T15 construct: also called peptide No. 3
T15 peptide: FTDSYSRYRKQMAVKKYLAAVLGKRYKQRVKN

T16: PACAP38 peptide fragment 6-36 (human)
T16 construct: also called peptide No. 12
T16 peptide: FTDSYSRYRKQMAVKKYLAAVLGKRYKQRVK

T17: PACAP38 peptide fragment 4-27 (human)
T17 construct: also called peptide No. 9
T17 peptide: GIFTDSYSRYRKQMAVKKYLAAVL

T18: PACAP38 peptide fragment 6-35 (human)
T18 construct: also called peptide No. 4
T18 peptide: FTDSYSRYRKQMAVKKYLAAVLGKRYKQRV


Assays:
[1] = target: T1, PACAP38 peptide fragment 34-38; assay: SPR (Biacore 3000), solution competition with the peptide for antibody binding to immobilised full-length PACAP38; % inhibition
Description: (§1) The binding epitopes of anti-PACAP antibodies were evaluated by using the Biacore 3000 biosensor-based instrument (GE Healthcare USA). The Biacore 3000 instrument utilizes surface plasmon resonance (SPR) technology to measure mass increase on the sensor-chip surface. The binding interactions are measured in real-time and recorded as Response Units (RU). Each binding profile (cycle) is stored in a “sensorgram” in real-time. Generally, Biacore technology entails immobilizing a ligand of interest on to a flow-cell of the sensor-chip via a coupling chemistry. The analyte (e.g. putative binding partner to the ligand of interest) is injected across the immobilized ligand allowing it to bind to the ligand-immobilized surface. The magnitude of the response is directly proportional to the mass increase on the immobilized surface due to the binding of the analyte.
(§2) In this experiment, various peptide fragments of PACAP38 were incubated with each of the six antibodies (mAb1, mAb2, mAb3, mAb4, mAb5, and mAb6) described in Example 2 and evaluated for their ability to inhibit binding of the antibodies to full-length PACAP38 immobilized on the sensor-chip. The binding epitopes for each of the antibodies were deduced from the set of peptides that were able to inhibit the binding of each antibody to full-length PACAP38.
(§3) Each of the six anti-PACAP antibodies was incubated at a 1:200 molar ratio (Ab: peptide fragment) with each of the peptide fragments in Table 9 at an ambient temperature for 2 hours prior to analysis. […] A second control containing 6.5 nM antibody was prepared in sample diluent to be used as the untreated control sample for each antibody. Full-length PACAP38, buffer, and each peptide fragment were also tested to evaluate non-specific binding to the immobilized PACAP38 surface.

[2] = target: T2, 30-37; assay: as above
Description: as §1, §2, §3

[3] = target: T3, PACAP38 peptide fragment 6-20; assay: as above
Description: as §1, §2, §3

[4] = target: T4, amino terminal PACAP38 peptide (amino …); assay: as above
Description: as §1, §2, §3

[5] = target: T5, PACAP38 peptide fragment 27-38; assay: SPR (Biacore 3000), solution competition: antibody pre-incubated 2 h with the peptide at 1:200 molar ratio (Ab:peptide), then injected over immobilised full-length PACAP38; readout % inhibition of antibody binding (filing counts >50 % as reactive)
Description: as §1, §2, §3

[6] = target: T4, amino terminal PACAP38 peptide (amino …); assay: ELISA screen of B-cell culture supernatant; N-terminal peptide at 500 ng/mL
[7] = target: T6, vasoactive intestinal peptide (VIP); assay: ELISA screen of B-cell culture supernatant
[8] = target: T6, vasoactive intestinal peptide (VIP); assay: ELISA screen of B-cell culture supernatant; VIP at 100 ng/mL
[9] = target: T7, carboxy terminal PACAP38 peptide (amino …); assay: ELISA screen of B-cell culture supernatant; C-terminal peptide at 500 ng/mL
Text: (§4) Rabbits were immunized with human PACAP38 peptide ([…]; SEQ ID NO: 1). Monoclonal antibodies were generated from the immunized rabbits using the Selected Lymphocyte Antibody Method (SLAM) as described in Babcook et al., Proc. Natl. Acad. Sci. USA, Vol. 93: 7843-7848, 1996. Briefly, B cells were harvested from spleens from the immunized rabbits and expanded in culture. The supernatant from the expanded B-cell cultures was initially screened for binding to an amino terminal PACAP38 peptide ([…]; SEQ ID NO: 5) and a carboxy terminal PACAP38 peptide ([…]; SEQ ID NO: 4) using an ELISA assay. From the initial screen, 2,935 N-terminal and/or C-terminal binders were identified. The affinity of these antibodies for full-length human PACAP38 (SEQ ID NO: 1) was assessed by ELISA assay.

[10] = target: T8, 31-38; assay: SPR (Biacore 3000), solution competition: antibody pre-incubated 2 h with the peptide at 1:200 molar ratio (Ab:peptide), then injected over immobilised full-length PACAP38; readout % inhibition of antibody binding (filing counts >50 % as reactive)
Description: as §1, §2, §3

[11] = target: T9, PACAP38 peptide fragment 26-33; assay: SPR (Biacore 3000) solution competition against immobilised PACAP38
[12] = target: T10, full-length human PACAP38; assay: cell-based or functional assay
[13] = target: T11, PACAP38 peptide fragment 11-27; assay: SPR (Biacore 3000), solution competition with the peptide for antibody binding to immobilised full-length PACAP38; % inhibition
Description: as §1, §2, §3

[14] = target: T8, 31-38; assay: as above
Description: as §1, §2, §3

[15] = target: T12, PACAP38 peptide fragment 14-38; assay: as above
Description: as §1, §2, §3

[16] = target: T13, human PACAP27; assay: cell-based or functional assay
[17] = target: T7, carboxy terminal PACAP38 peptide (amino …); assay: ELISA screen of B-cell culture supernatant
[18] = target: T10, full-length human PACAP38; assay: ELISA screen of B-cell culture supernatant; full-length PACAP38 at 10 ng/mL
Text: as §4

[19] = target: T14, PACAP38 peptide fragment 6-38; assay: SPR (Biacore 3000) solution competition: antibody pre-incubated 1:200 with the fragment, then injected over immobilised PACAP38
Description: as §2, §3

[20] = target: T15, PACAP38 peptide fragment 6-37; assay: as above
Description: as §2, §3

[21] = target: T16, PACAP38 peptide fragment 6-36; assay: as above
Description: as §2, §3

[22] = target: T3, PACAP38 peptide fragment 6-20; assay: as above
Description: as §2, §3

[23] = target: T17, PACAP38 peptide fragment 4-27; assay: as above
Description: as §2, §3

[24] = target: T18, PACAP38 peptide fragment 6-35; assay: as above
Description: as §2, §3

[25] = target: T5, PACAP38 peptide fragment 27-38; assay: SPR (Biacore 3000) solution competition against immobilised PACAP38
[26] = target: T4, amino terminal PACAP38 peptide (amino …); assay: ELISA screen of B-cell culture supernatant; N-terminal peptide at 500 ng/mL; ELISA screen of B-cell culture supernatant (Example 1); N-terminal peptide 500 ng/mL; optical density
Text: as §4

Row | binding result [5] | Optical Density [6] [OD] | binding result [7] | Optical Density [8] [OD] | Optical Density [9] [OD] | Binder | binding result [1] | binding result [2] | binding result [3] | binding result [4] | further results
1 | binds | 0.06 | no binding (tested: 100 ng/mL) | 0.07 | 3.59 | mAb3 (antibody, V domains shown, Rabbit monoclonal antibody (SLAM), recombinant; also called monoclonal anti-PACAP antibody 3; 3 (c89)) VH: QSLEESGGGLVQPGASLTLTCTASGFSFSSNYYMCWVRQAPGKGLEWIACIFTGSSGSTYYASWAKGRFTISKTSSTTVTLHVTSLTAADTATYFCARDRALSVVGYFYAAYYFDFWGPGTLVTVSS VL: DVVMTQTPSPVSAAVGGTVTINCRASEDIESFLAWYQQKPGQPPKLLMSRTSTLESGVPSRFKGSGSGTEFTLTISDLECADAATYYCQCTDGSSSSSSYGWDAFGGGTEVVVKG | no binding (tested: 1:200 molar ratio (Ab:peptide)) | no binding (tested: 1:200 molar ratio (Ab:peptide)) | no binding (tested: 1:200 molar ratio (Ab:peptide)) | no binding (tested: 1:200 molar ratio (Ab:peptide)) | –
2 | binds | 0.05 | no binding (tested: 100 ng/mL) | 0.08 | 5.33 | mAb1 (antibody, V domains shown, Rabbit monoclonal antibody (SLAM), cloned, recombinantly expressed and purified; also called monoclonal anti-PACAP antibody 1; 1 (c20)) VH: QSLEESGGDLVKPGASLTLTCKASGIAFSNDYMCWVRQAPGKGLEWIACIFTGSSGSTYYASWAKGRFTISKTSSTTVTLQMTSLTAADTATYFCARDRAISVLGYFYAAYFFDFWGPGTLVTVSS VL: DVVMTQTPSPVSAAVGGTVTINCRASEDIESFLAWYQQKPGQPPKLLISRTSTLESGVSSRFKGSGSGTEFILTISDLECADAATYYCQCTDGSSSSSSYGWDAFGGGTEVVVKG | – | – | no binding (tested: 1:200 molar ratio (Ab:peptide)) | no binding (tested: 1:200 molar ratio (Ab:peptide)) | binding result [10]: binds; binding result [11]: no binding (tested: 1:200 molar ratio (Ab: peptide fragment))
3 | – | – | – | 0.24 | 0.05 | mAb4 (antibody, V domains shown, Rabbit monoclonal antibody (SLAM), recombinant; also called monoclonal anti-PACAP antibody 4; 4 (c47)) VH: QSVEESGGRLVTPGTPLTLTCTASGIDLSSYAMIWVRQAPGEGLEYIGFIDAGDGNTYYASWAKGRFTISKTSTTVDLKITSPTTEDTATYFCARGDPGWSNGFALWGQGTLVTVSS VL: DIVMTQTPASVSGAVGGTVTIKCQASQSIRNELSWYQQKPGQPPKLLIYKASTLASGVPSRFSGSGFGTEFTLTISGVQCDDAATYYCQNNYGTRRNNYVFPFGGGTEVVVKG | no binding (tested: 1:200 molar ratio (Ab:peptide)) | no binding (tested: 1:200 molar ratio (Ab:peptide)) | – | – | IC50: inhibition of PACAP38 (10 pM)-induced activation of human PAC1 receptor, cAMP assay in SH-SY5Y (CRL-2266) cells, POC versus antibody concentration [12]: 12 nM; binding result [13]: no binding (tested: 1:200 molar ratio (Ab:peptide)); binding result [14]: no binding (tested: 1:200 molar ratio (Ab:peptide)); binding result [15]: no binding (tested: 1:200 molar ratio (Ab:peptide)); IC50: inhibition of PACAP27 (10 pM)-induced activation of human PAC1 receptor, cAMP assay in SH-SY5Y (CRL-2266) cells, POC versus antibody concentration [16]: 3.7 nM; binding result [17]: no binding (tested: 500 ng/mL); Optical Density [18]: 2.09 OD; binding result [19]: binds; binding result [20]: binds; binding result [21]: binds; binding result [22]: binds; binding result [23]: binds; binding result [24]: binds; binding result [25]: no binding (tested: 1:200 molar ratio (Ab: peptide fragment)); Optical Density [26]: 3.68 OD
